The target of this assay is Env-CD4-CCR5 complex (Example II) (UniProt P01730). Kind of assay: method not stated; reference is X5-Fab.
Sequence of Env-CD4-CCR5 complex (Example II) (P51681 whole entry, chain 2 of 2, other chains not shown): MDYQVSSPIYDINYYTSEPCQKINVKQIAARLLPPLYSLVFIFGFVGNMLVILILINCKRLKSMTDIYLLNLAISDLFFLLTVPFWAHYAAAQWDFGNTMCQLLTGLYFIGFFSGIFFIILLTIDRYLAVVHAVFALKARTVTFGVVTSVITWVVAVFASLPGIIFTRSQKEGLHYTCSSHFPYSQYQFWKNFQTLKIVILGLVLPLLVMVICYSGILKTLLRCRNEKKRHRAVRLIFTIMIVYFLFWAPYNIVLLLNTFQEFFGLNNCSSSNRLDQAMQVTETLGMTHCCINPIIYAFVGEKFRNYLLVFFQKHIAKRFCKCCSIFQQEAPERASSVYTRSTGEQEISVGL

B1: FabS (Fab, V domains shown)
VH: VQLLEQSGAEVKKPGSSVQVSCKASGGTFSMYGFNWVRQAPGHGLEWMGGIIPIFGTSNYAQKFRGRVTFTADQATSTAYMELTNLRSDDTAVYYCARDFGPDWEDGDSYDGSGRGFFDFWGQGTLVTVSS
VL: ELVLTQSPGTLSLSAGERATLSCRASQSVSSGSLAWYQQKPGQAPRLLIYGASTRATGIPDRFSGSGSGTDFTLTIGRLEPEDLAVYYCQQYGTSPYTFGQGTKLEIKR
As to B1, the fold increased affinity compared to the original X5-Fab came out at 5 fold.

(Values after patent US20040259075A1.)
